In US20240115668A1, “TREATMENT OF SPINAL CORD INJURY WITH PTEN INHIBITOR” (KOLON TISSUEGENE, INC., priority 2020, published 2024):
Where no end group is shown, it is not given here.

Tests used:
[1] = biological target: T1, PTEN (Homo sapiens, UniProt P60484); conditions: previous study of Odriozola et al.; read-out: IC50 (in vitro PTEN activity, Odriozola et al.); cited from earlier work
Target sequence in this assay (P60484 whole entry, species assumed): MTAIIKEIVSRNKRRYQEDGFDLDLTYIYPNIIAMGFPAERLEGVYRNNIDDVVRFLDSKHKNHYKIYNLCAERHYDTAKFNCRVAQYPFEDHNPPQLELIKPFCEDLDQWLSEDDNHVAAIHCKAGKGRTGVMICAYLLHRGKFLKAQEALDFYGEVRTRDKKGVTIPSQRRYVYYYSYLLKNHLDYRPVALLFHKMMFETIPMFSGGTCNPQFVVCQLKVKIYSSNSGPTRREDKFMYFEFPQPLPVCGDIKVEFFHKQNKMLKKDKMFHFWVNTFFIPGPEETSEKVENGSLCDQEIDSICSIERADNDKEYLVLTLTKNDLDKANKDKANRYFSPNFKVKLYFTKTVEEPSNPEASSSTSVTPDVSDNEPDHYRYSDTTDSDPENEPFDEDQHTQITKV

[2] = biological target: T1, PTEN; assay: In vitro PTEN activity assay / IC50 assay (Malachite Green phosphate detection, C8-PIP3 liposome substrate); assay type: biochemical; parameters: purchased R&D Systems, Inc; conditions: 10 μM peptide, 20 ng recombinant human PTEN, 0.1 mM C8-PIP3 liposome
Target sequence in this assay (P60484 whole entry): as the sequence (P60484 whole entry, species assumed) above
From the text: In vitro PTEN activity assay was designed to check PTEN lipid phosphatase activity to convert phosphatidylinositol triphosphate (PIP3) to phosphatidylinositol diphosphate (PIP2) and produce phosphate ion (Pi). 1,2-dioctanoyl-sn-glycero-3-phospho-(1′-myo-inositol-3,4,5-triphosphate) (C8-PIP3) was used as PTEN substrate and prepared as lipid vesicle (liposome) with other phospholipids because PTEN as lipid phosphatase is an interfacial enzyme. For liposome preparation, C8-PIP3, DOPS (1,2-dioeloyl-sn-glycero-phosphoserine) and DOPC (1,2-dioeloyl-sn-glycero-phosphocholine) were mixed together with 800 μL of liposome buffer (50 mM Tris, 100 mM NaCl, 10 mM MgCl2, 5 mM DTT, pH=8.0) to final concentration of 0.1 mM of C8-PIP3, 0.25 mM DOPS and 0.25 mM DOPC. The lipid mixture was then sonicated at 4° C. for 30 min to produce liposome. After sonication, the liposome solution was briefly centrifuged to remove remaining lipids.
For PTEN activity assay, 20 ng of recombinant human PTEN protein was mixed with L of completed liposome solution. PTEN assay buffer (1 mM Tris, 20 mM DTT and 0.5% NP-40, pH=8.0) was added up to 100 μL as final volume. […] After incubation, the inorganic phosphate ions produced by PTEN protein was detected using Malachite Green phosphate detection kit. […]
All data represent experimentation in triplicate and the IC50 values were calculated by Prism 5 software (GraphPad Software). […]

[3] = tested on: endogenous Akt protein in PC12 cells; assay: Western blot of Akt activation (phosphorylation) level in PC12 cell lysates; assay type: cell-based, rat; conditions: differentiated PC12 cells, endogenous or overexpressed PTEN; TGN-1 10 and 100 μM, TGN-4 10 μM; 24 hr; anti-phospho Akt antibody
Method: PC12 rat pheochromocytoma cells were seeded to 6-well plate (0.6×10^6 cells/well) and cultured with DMEM media containing 7.5% FBS and 7.5% Goat Serum. After the cell confluency reached around 60˜ 70%, NGF (nerve growth factor, 50 ng/mL) was added to the PC12 cells for differentiation and incubated for 5 more days. Then, fresh media containing different amounts of TGN peptides in DMSO solution were added to each well and incubated further for 24 hr. For PTEN overexpression, PC12 cells were seeded in 6-well plate (1.0×10^6 cells/well) and differentiated with NGF (50 ng/mL) as above. DNA-Lipofectamine 2000 mixture was prepared for each well of cells to be transfected by firstly adding 2˜ 2.5 μg of human PTEN c-DNA into 500 μl of Opti-MEM. 3.75-8.75 μl of Lipofectamine 2000™ reagent was added next to the above diluted DNA solution, mixed gently and incubated for 25 minutes at room temperature. Growth media of PC12 cells in 6-well plate was exchanged with fresh media and 500 μl of the DNA-Lipofectamine 2000 complex was added to each well for transfection. Transfected cells were incubated at 37° C. in 5.0% CO2 incubator for 24-48 hours post-transfection before assaying for transgene expression.
After culturing, PC12 cells were collected from the 6-well plate and centrifuged down with bench-top centrifuger to make cell pellet (13,000 rpm, 5 min at RT). […]

Substance	IC50 [1]	Inhibition of PTEN activity (in words) [2]	Activation (phosphorylation) level of Akt protein [3]
Cp23: synthetic phosphomimic peptide of Odriozola et al. encompassing PTEN AA368-390, no phosphorylated Serine residues (DVSDNEPDHYRYSDTTDSDPENE; UniProt P60484 368-390, looked up, fragment)	~1030 µM		
RRRRRRRR-SDDEYTDNPDSRYVSDTPVDTEH-amide (RRRRRRRRSDDEYTDNPDSRYVSDTPVDTEH-NH2) [TGN-4, scrambled peptide of TGN-1, negative control]		no significant inhibition of PTEN activity	did not increase the activation level of AKT protein
RRRRRRRR-DEHDTEYTPDYRQETHFNSQPTDKSDVI-amide (RRRRRRRRDEHDTEYTPDYRQETHFNSQPTDKSDVI-NH2) [TGN-5, scrambled peptide of TGN-2/TGN-3]		no significant inhibition of PTEN activity	
